Source: patent publication US20240270840A1 (NECTIN THERAPEUTICS, published 2024)
Values belong to the binder of their own block, whether it stands above or below them.

Columns and labels:
Human CD112R (PVRIG) [1] = molecular target: T1, Human CD112R (PVRIG) (human, UniProt Q6DKI7 41-171, limits assumed); assay: SPR (Biacore); human CD112R as ligand, antibody as analyte; * limit of Biacore instrument
T1 sequence (looked up): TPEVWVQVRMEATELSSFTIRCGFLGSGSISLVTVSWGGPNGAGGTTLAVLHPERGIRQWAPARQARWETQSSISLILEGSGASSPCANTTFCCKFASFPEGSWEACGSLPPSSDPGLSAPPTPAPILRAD

[2] = molecular target: T2, Human CD112R expressed on cells (human, UniProt Q6DKI7 1-326); assay: FACS, chimeric mAb 99-0.4 nM in three-fold dilutions on HEK 293T cells overexpressing CD112R, anti-human-APC 1:200
T2 construct: whole, on cells; also called HuCD112R; hCD112R
T2 sequence (looked up): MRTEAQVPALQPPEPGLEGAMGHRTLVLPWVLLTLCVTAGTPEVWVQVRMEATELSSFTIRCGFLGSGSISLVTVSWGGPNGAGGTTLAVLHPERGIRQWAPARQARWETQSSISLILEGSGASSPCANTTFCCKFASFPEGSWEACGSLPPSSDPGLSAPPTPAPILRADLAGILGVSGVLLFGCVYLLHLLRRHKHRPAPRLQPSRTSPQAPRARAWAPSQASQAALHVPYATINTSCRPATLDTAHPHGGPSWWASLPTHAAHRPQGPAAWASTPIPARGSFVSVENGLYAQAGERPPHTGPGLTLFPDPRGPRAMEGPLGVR
Procedure: For detection, anti-human-APC antibody (Ab) was used at 1:200 dilution, and cell binding was analyzed by FACS. FIG. 3C—8866 cells ([…]) overexpressing human Nectin-2 were incubated with 10 μg/ml of CD112R-Fc in the presence of isotype control Ab, or with the indicated clones at 4 μg/ml. Bound CD112R-Fc was detected by anti-mouse-Dy-647 1:250 dilution and analyzed by FACS. The blocking of CD112R binding exceeded 95% by all the variants.
Binding was analyzed by FACS and used for calculation of EC-50 values. […] The N31S variant, engineered to remove an N-Linked glycosylation motif at the CDR1 of the heavy chain, had improved (sub-nM) binding to human CD112R in this cell-based assay.

Human CD112R (PVRIG) [3] = molecular target: T1, Human CD112R (PVRIG); assay: SPR (Biacore); human CD112R as ligand, antibody as analyte
[4] = molecular target: Cynomolgus monkey (Macaca fascicularis) CD112R expressed on cells (cynomolgus monkey (Macaca fascicularis)); assay: flow cytometry on 293T cells expressing cynomolgus CD112R; 99-0.05 nM, three-fold dilutions
Human CD112R (PVRIG) [5] = molecular target: T1, Human CD112R (PVRIG); assay: affinity of glycosylation-motif variants (Table 2; method not named there)
Human CD112R (PVRIG) [6] = molecular target: T1, Human CD112R (PVRIG); assay: SPR (Biacore), against the reference Ab
Human CD112R (PVRIG) [7] = molecular target: T1, Human CD112R (PVRIG); assay: SPR (Biacore); purified full antibody
[8] = molecular target: Cynomolgus monkey (Macaca fascicularis) CD112R expressed on cells (cynomolgus monkey (Macaca fascicularis)); assay: flow cytometry on 293T cells; EC50 on cynomolgus CD112R against EC50 on human CD112R
[9] = molecular target: T2, Human CD112R expressed on cells; assay: flow cytometry on 293T cells expressing human CD112R; 99-0.05 nM, three-fold dilutions
Procedure: (§1) The humanized mAbs were tested for binding of endogenous and overexpressed human and cynomolgus CD112R.

[10] = molecular target: T2, Human CD112R expressed on cells; assay: flow cytometry competition on 293T cells overexpressing CD112R; antibody 40-0.018 nM; competitor hNectin-2-mIgG2a at 125 nM
Procedure: The humanized anti-CD112R antibodies are potent blockers of CD112R—Nectin-2 interactions. […] The antibodies were added in a range of concentrations of 40-0.018 nM in a series of three-fold dilutions. The amount of bound hNectin-2-mIgG2a was detected by anti-mouse antibodies fluorescently labeled with Dy-light 647 (115-606-071 Jackson immunoresearch) and analyzed by FACS.

[11] = molecular target: T2, Human CD112R expressed on cells; assay: flow cytometry EC-50 on human NK cells, against the reference Ab (member assigned from Table 7)
[12] = molecular target: Cynomolgus monkey (Macaca fascicularis) CD112R expressed on cells (cynomolgus monkey (Macaca fascicularis)); assay: flow cytometry; EC-50 on cynomolgus CD8 T cells against EC-50 on human NK cells
[13] = molecular target: T2, Human CD112R expressed on cells; assay: flow cytometry on human NK cells (endogenous CD112R)
Procedure: as §1
(§2) Table 7 summarizes EC50 values calculated based on the binding curves of selected humanized mAbs to cynomolgus CD8 T cells and human NK cells, both cells expressing endogenous CD112R of the relevant species. Assay was performed as in Table 6. An anti-CD112R mAb disclosed in WO2016134333 was used for comparison. All the humanized variants have a complete cross-reactivity between the human and cynomolgus targets.

Human CD112R (PVRIG) [14] = molecular target: T1, Human CD112R (PVRIG); assay: SPR (Biacore); purified full antibody; * limit of the Biacore instrument sensitivity
[15] = molecular target: T2, Human CD112R expressed on cells; assay: flow cytometry on human NK cells (endogenous CD112R); remark: listed apart in the source
[16] = molecular target: T2, Human CD112R expressed on cells; assay: flow cytometry; max binding on human NK cells against max binding on cynomolgus CD8 T cells
Procedure: as §1, §2

[17] = molecular target: Cynomolgus monkey (Macaca fascicularis) CD112R expressed on cells (cynomolgus monkey (Macaca fascicularis)); assay: flow cytometry on cynomolgus CD8 T cells (endogenous CD112R)

Kd (Human CD112R (PVRIG) [1]): 0.00096 nM | EC50 [2]: 0.7 nM | koff (Human CD112R (PVRIG) [3]): 3.26e-07 s⁻¹ | kon (Human CD112R (PVRIG) [3]): 340000 M⁻¹ s⁻¹ | EC50 [4]: 0.97 nM | Kd (Human CD112R (PVRIG) [5]): 0.167 nM | Relative Kd (against VH0Vk0) (Human CD112R (PVRIG) [5]): 1 | fold more potent in binding CD112R than the reference Ab (Human CD112R (PVRIG) [6]): 3 to 30 fold | Kd (Human CD112R (PVRIG) [7]): 0.145 nM | Relative Kd (against VH0K0 N28T) (Human CD112R (PVRIG) [7]): 1.16 | koff (Human CD112R (PVRIG) [7]): 3.05e-05 s⁻¹ | kon (Human CD112R (PVRIG) [7]): 210000 M⁻¹ s⁻¹ | Ratio Cyno/Hu (EC50) [8]: 1.75 | EC50 [9]: 0.55 nM
B1: chimeric clone-13(N31S)-hIgG1 (VH0K0) (antibody, V domains shown)
VH: QVQLQQPGAELVKPGTSVKLSCKASGYNFTSYWINWVKLRPGQGLEWIGDIYPGSYIPNYNEKFKNKATLTVDTSSSTAYMQLTSLASEDSALYYCAGGYFDVWGAGTTVTVSS
VL: DIVMTQSPSSLSVSAGEKVTMSCKSSQSLLSSGNQKNYLAWYQQKPGQPPKLLIYGASTRESGVPDRFTGSGSGTDFTLTISSVQAEDLAVYYCQNDHSYPYTFGGGTKLEIK
notes: Chimeric, human IgG1; Light chain with N31S (deamidation removal), also denoted N27dS by Kabat numbering; also called clone N31S; VH0Vk0

EC50 [10]: 0.29 nM | EC-90 [10]: 10.7 nM | fold improved binding compared to the reference Ab [11]: > 2 fold | Ratio Cyno/Hu (EC-50) [12]: 1.61 | EC50 [4]: 0.72 nM | EC50 [13]: 0.91 nM | Kd (Human CD112R (PVRIG) [14]): 0.0167 nM | Relative Kd (against VH0K0 N28T) (Human CD112R (PVRIG) [14]): 0.13 | koff (Human CD112R (PVRIG) [14]): 4.79e-06 s⁻¹ | kon (Human CD112R (PVRIG) [14]): 287000 M⁻¹ s⁻¹ | Max binding Hu (MFI a.u - background) [15]: 982 MFI a.u | Ratio Hu/Cyno (max binding) [16]: 1.2 | Ratio Cyno/Hu (EC50) [8]: 2.43 | EC50 [17]: 1.46 nM | Max binding Cyno (MFI a.u - background) [17]: 820 MFI a.u | EC50 [9]: 0.3 nM
B2: H11K1 (full humanized antibody) (antibody, V domains shown)
VH: QVQLVQSGAEVKKPGSSVKVSCKASGYTFTSYWINWVRQAPGQGLEWIGDIYPGSYIPNYNEKFKNRATLTVDTSASTAYMELSSLRSEDTAVYYCAGGYFDVWGQGTTVTVSS
VL: DIVMTQSPDSLSVSLGERATINCKSSQSLLSSGNQKNYLAWYQQKPGQPPKLLIYGASTRESGVPDRFTGSGSGTDFTLTISSLQAEDVAVYYCQNDHSYPYTFGQGTKLEIK
notes: Humanized full antibody, human IgG1; also called VH11K1

Kd (Human CD112R (PVRIG) [1]): 0.00871 nM | EC50 [2]: 1.24 nM | koff (Human CD112R (PVRIG) [3]): 2.96e-06 s⁻¹ | kon (Human CD112R (PVRIG) [3]): 340000 M⁻¹ s⁻¹ | fold more potent in binding CD112R than the reference Ab (Human CD112R (PVRIG) [6]): 3 to 30 fold
B3: Clone-13-hIgG1 (antibody, V domains shown)
VH: QVQLQQPGAELVKPGTSVKLSCKASGYNFTSYWINWVKLRPGQGLEWIGDIYPGSYIPNYNEKFKNKATLTVDTSSSTAYMQLTSLASEDSALYYCAGGYFDVWGAGTTVTVSS
VL: DIVMTQSPSSLSVSAGEKVTMSCKSSQSLLNSGNQKNYLAWYQQKPGQPPKLLIYGASTRESGVPDRFTGSGSGTDFTLTISSVQAEDLAVYYCQNDHSYPYTFGGGTKLEIK
notes: Chimeric antibody with human IgG1 constant region; also called chimeric clone (clone 13)
